Laboratory results published in publication PMC9023282.
“And” between values parts separate entries of the source, which are not always exact repeats. Equal values may be shown once.

Target: GINS complex (Gins51 and Gins23), wild type (Thermococcus kodakarensis)
Assay: native gel or EMSA

## family D DNA polymerase (PolD), DP1 and DP2 (complex)
  stoichiometry N (PolD per GINS): 2 and 1
